# Measurements taken from PMC8492941.
# Target: ABD-fused VP1 (ABD-VP1) protein vaccine (not stated | Coxsackievirus B3) (UniProt P03313)
# Assay: ELISA; sandwich ELISA on serum of mice injected subcutaneously with ABD-VP1 or VP1: plates pre-coated with anti-VP1 antibody, detection with anti-albumin antibody and HRP-labeled secondary antibody, absorbance at 450 nm; the complex formed in vivo
substance,measurement,value
mouse serum albumin (MSA) (from UniProt P07724 25-608) (natural protein),OD450,0.7 OD450
